The term KD denotes the concentration at which binding is half-saturated. By Kd is commonly meant the constant that tells how readily two partners part at equilibrium. The low end stands for a tighter complex, the high end for a looser complex.

Starred links: 1 amine or outer side, 2 acyl side, 3 side chain; linkers in the order of their positions; H or OH if unused. Positions of bridges follow the written chain, without caps; N, C: chain ends. Non-standard residues stand in square brackets, D forms with d. Groups on a side chain read outwards from the residue. Primed or numbered codes have the meaning given here. *: point of attachment. (2S,3S)beta‑Me‑Phe = C[C@@H](c1ccccc1)[C@H](N[*:1])C(=O)[*:2]; (2S,3S)βMePhe = C[C@@H](c1ccccc1)[C@H](N[*:1])C(=O)[*:2]; DOTA = O=C(O)CN1CCN(CC(=O)O)CCN(CC(=O)*)CCN(CC(=O)O)CC1; PipAla = piperidinyl-alanine residue (as named); Trp(5-F) = N[C@@H](Cc1c[nH]c2ccc(F)cc12)C(=O)O; PEG4′ = 4x 3-(2-aminoethoxy)propanoic acid; γGlu = O=C(O)[C@H](CCC(=O)[*:2])N[*:1]; 1Nal = N[C@@H](Cc1cccc2ccccc12)C(=O)O; Ala(4-THP) = N[C@@H](CC1CCOCC1)C(=O)O; Val(3-OH) = CC(C)(O)[C@H](N)C(=O)O; 4Pal = N[C@@H](Cc1ccncc1)C(=O)O; Tle = CC(C)(C)[C@H](N)C(=O)O; hLeu = CC(C)CC[C@H](N)C(=O)O; Nle = CCCC[C@H](N)C(=O)O

Experimental findings from US20250296959A1, “B7-H3 TARGETING PEPTIDES AND CONSTRUCTS THEREOF” (Mariana Oncology Inc., priority 2024, published 2025) are described below.

Assay [1] concerns the target T1, Biotinylated human 4Ig B7-H3 (human, UniProt Q5ZPR3 29-461, limits assumed, biotinylated (site not stated)).
T1 construct: Protein captured on the SA chip for SPR; also called 4lg-B7-H3; B7-H3 isoform 4Ig
T1 sequence: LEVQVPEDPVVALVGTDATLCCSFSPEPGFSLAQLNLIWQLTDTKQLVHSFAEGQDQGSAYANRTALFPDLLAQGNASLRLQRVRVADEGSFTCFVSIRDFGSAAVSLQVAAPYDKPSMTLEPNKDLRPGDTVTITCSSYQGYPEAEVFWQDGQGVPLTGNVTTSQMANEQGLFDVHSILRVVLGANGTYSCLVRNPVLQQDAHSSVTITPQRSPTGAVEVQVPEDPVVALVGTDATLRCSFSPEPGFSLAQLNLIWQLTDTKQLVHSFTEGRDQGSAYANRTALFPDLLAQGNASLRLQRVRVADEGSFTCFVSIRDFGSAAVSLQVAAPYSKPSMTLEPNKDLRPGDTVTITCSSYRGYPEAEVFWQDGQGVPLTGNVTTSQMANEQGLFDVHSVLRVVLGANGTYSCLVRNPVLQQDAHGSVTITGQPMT
In words: SPR 25C; B = 1.0<KD<=10 nM.

Assay [2] concerns the target T1, Biotinylated human 4Ig B7-H3. Briefly: SPR 37C; B = 1.0<KD<=10 nM.
The target in a further assay is 2Ig B7-H3 (UniProt Q5ZPR3). Briefly: SPR, 37C. For orientation: SPR reads the build-up and loss of mass on a sensor chip optically.
The target of assay [3] is Biotinylated human 4Ig B7-H3 (human) (UniProt Q5ZPR3). In words: SPR 37C; A = KD<=1.0 nM.
The next assay addresses T2, B7-H3 on Calu-6 cells (human, UniProt Q5ZPR3 29-534).
T2 construct: whole, on cells
T2 sequence (looked up): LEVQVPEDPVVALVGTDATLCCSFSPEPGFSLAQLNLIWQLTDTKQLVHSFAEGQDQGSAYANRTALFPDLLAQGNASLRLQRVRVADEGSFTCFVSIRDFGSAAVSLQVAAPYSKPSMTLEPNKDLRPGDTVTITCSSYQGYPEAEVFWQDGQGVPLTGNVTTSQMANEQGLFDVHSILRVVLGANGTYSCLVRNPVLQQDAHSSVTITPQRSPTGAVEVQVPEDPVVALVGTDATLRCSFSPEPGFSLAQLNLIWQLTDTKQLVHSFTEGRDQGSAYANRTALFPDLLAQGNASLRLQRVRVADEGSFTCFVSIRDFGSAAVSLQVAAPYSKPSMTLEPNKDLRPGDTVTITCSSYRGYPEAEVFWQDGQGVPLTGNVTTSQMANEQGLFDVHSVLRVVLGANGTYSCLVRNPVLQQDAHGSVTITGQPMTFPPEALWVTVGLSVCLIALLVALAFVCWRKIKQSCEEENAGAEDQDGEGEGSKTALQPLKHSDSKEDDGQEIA
Briefly: 177Lu-labelled peptide on Calu-6 cells, % cell associated fraction; B = 25<%<=50.

The target in assay [4] is B7-H3 on Calu-6 cells (human) (UniProt Q5ZPR3). In words: 177Lu-labelled peptide on Calu-6 cells, % cell associated fraction; C = >50%.
Assay [5] deals with Biotinylated human 4Ig B7-H3 (human) (UniProt Q5ZPR3). In words: SPR 25C; A = KD<=1.0 nM.

B1: Cpd 28 (peptide)
peptide: Ac-[Nle]YCVGKYDVYCWFT[dK](DOTA)-OH
modifications: disulfide 3-11
SMILES: CCCC[C@H](NC(C)=O)C(=O)N[C@@H](Cc1ccc(O)cc1)C(=O)N[C@H]1CSSC[C@@H](C(=O)N[C@@H](Cc2c[nH]c3ccccc23)C(=O)N[C@@H](Cc2ccccc2)C(=O)N[C@H](C(=O)N[C@H](CCCCNC(=O)CN2CCN(CC(=O)O)CCN(CC(=O)O)CCN(CC(=O)O)CC2)C(=O)O)[C@@H](C)O)NC(=O)[C@H](Cc2ccc(O)cc2)NC(=O)[C@H](C(C)C)NC(=O)[C@H](CC(=O)O)NC(=O)[C@H](Cc2ccc(O)cc2)NC(=O)[C@H](CCCCN)NC(=O)CNC(=O)[C@H](C(C)C)NC1=O
Turning to B1, the KD in assay [1] and in assay [2] was 1 to 10 nM each time.

As to Ac-[hLeu]YC[Tle]G[PipAla]K([PEG4′-DPTA])DVYC[Trp(5-F)][(2S,3S)beta‑Me‑Phe][Val(3-OH)][dA]-OH (disulfide 3-11 (inferred)) [Cpd 523], in the assay with 2Ig B7-H3, the Kd was found to be 520 nM. For the same molecule, in assay [3], the KD was less than 1 nM.

With Ac-[hLeu]YC[Tle]GK([γGlu-DOTA])[4Pal]DVYC[1Nal]FP-NH2 (disulfide 3-11) [Cpd 252], in the assay with B7-H3 on Calu-6 cells, the “% cell associated fraction” value lay within 25 to 50%.

Regarding Ac-[hLeu]YC[Tle]G[PipAla]([PEG4′-DOTA])[Ala(4-THP)]DVYC[Trp(5-F)][(2S,3S)βMePhe][Val(3-OH)][dA]-OH (disulfide 3-11 (inferred)) [Cpd 494], the % cell associated fraction in assay [4] is more than 50%. The molecule also showed a dissociation constant (Kd) in the assay with 2Ig B7-H3 of 370 nM. Moreover, the KD in assay [3] is less than 1 nM.

With Ac-[hLeu]YC[Tle]GK[Ala(4-THP)]DVYC[Trp(5-F)]F[Val(3-OH)][dK](DOTA)-OH (disulfide 3-11 (inferred)) [Cpd 303], the KD in assay [5] and in assay [3] was less than 1 nM in each case. In assay [4], this molecule returned a % cell associated fraction of more than 50%.
